Here are results for three substances from paper PMC7594496.

Test in all cases: liposome recruitment assay (liposome flotation, gel band quantification)
The target of test [1] is Sec23–Sec24 complex (WT), P15303;P40482. The following applies: GMP-PNP, 400 nm unilamellar liposomes, read off a plot.
The target in test [2] is Sar1 (UniProt P20606). The following applies: GMP-PNP; 400 nm unilamellar liposomes; parent: est. 0.98; read off a plot.
The target of test [3] is Sec13–Sec31 complex (WT), Q04491;P38968. The following applies: GMP-PNP; 400 nm unilamellar liposomes; parent: est. 1.1; read off a plot.

Sar1, sequence (P20606 whole entry): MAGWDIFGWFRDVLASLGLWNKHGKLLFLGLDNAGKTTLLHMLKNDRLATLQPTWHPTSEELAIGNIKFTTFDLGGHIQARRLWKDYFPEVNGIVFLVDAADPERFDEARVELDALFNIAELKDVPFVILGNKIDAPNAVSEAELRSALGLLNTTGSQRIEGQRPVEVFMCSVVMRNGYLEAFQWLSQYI
Sec13–Nhis-Sec31 complex, sequence (Q04491 whole entry, stated change not applied): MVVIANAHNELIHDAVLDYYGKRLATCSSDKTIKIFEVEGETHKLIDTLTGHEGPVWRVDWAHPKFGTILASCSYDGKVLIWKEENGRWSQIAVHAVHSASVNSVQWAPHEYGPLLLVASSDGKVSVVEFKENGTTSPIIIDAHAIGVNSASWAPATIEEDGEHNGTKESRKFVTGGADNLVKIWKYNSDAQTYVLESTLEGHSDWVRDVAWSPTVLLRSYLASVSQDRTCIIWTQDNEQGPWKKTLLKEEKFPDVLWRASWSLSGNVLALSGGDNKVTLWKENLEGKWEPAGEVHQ
Sec13–Nhis-Sec31 complex, sequence (P38968 whole entry, stated change not applied): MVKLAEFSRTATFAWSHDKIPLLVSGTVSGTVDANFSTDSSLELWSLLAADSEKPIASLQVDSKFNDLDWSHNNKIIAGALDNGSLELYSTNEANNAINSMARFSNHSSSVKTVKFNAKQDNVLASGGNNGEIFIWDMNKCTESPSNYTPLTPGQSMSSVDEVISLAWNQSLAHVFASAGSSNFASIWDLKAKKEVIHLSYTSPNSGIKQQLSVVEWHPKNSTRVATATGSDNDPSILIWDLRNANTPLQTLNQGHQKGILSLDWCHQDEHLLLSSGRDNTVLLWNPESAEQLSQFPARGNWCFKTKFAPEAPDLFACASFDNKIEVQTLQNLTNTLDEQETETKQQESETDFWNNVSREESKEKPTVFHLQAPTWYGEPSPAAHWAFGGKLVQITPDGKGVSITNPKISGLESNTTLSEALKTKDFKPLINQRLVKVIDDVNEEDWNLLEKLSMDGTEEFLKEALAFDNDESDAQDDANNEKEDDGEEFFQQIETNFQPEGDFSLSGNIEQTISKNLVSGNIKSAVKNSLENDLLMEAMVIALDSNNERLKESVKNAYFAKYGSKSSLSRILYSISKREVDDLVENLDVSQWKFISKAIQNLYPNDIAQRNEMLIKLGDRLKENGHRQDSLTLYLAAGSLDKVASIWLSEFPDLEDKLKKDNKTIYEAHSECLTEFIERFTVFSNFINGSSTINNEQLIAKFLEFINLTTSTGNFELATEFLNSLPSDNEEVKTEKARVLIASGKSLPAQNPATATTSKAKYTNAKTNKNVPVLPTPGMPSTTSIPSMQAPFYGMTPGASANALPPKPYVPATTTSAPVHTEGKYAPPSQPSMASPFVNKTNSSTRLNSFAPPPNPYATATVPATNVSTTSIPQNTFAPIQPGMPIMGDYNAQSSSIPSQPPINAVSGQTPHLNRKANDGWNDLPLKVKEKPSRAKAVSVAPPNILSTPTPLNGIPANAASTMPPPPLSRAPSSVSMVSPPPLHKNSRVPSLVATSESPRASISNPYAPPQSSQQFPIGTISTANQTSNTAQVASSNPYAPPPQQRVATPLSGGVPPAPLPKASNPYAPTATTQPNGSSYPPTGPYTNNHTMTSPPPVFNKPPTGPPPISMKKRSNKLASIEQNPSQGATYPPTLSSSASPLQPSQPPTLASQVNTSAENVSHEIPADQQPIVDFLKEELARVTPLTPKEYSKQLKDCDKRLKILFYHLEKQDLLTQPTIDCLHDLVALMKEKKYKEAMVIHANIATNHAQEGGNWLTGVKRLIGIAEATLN
Sec13–Sec31 complex (WT), sequence (Q04491 whole entry, stated change not applied): as the sequence (Q04491 whole entry, stated change not applied) above
Sec13–Sec31 complex (WT), sequence (P38968 whole entry, stated change not applied): as the sequence (P38968 whole entry, stated change not applied) above
Sec23–Sec24 complex (WT), sequence (P15303 whole entry, stated change not applied, the tested form may be a part): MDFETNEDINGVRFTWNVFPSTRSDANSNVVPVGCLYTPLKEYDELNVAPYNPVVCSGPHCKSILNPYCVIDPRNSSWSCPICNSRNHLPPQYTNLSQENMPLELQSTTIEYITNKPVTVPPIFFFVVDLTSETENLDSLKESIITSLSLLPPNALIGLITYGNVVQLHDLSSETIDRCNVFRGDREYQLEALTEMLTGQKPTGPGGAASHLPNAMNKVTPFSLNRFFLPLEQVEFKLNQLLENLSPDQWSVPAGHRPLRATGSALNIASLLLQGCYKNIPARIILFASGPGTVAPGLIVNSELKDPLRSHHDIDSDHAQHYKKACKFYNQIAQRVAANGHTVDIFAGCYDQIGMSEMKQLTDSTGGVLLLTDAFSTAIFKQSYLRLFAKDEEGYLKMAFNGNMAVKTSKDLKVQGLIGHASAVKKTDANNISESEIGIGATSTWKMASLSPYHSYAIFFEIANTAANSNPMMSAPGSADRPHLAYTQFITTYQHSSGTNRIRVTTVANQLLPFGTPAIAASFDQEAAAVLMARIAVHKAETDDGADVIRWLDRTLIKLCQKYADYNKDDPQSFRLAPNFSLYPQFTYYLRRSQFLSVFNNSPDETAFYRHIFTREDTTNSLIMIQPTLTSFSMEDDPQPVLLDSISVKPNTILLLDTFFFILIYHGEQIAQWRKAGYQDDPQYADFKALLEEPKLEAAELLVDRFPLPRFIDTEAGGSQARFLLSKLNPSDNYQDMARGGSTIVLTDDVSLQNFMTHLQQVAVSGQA
Sec23–Sec24 complex (WT), sequence (P40482 whole entry, stated change not applied, the tested form may be a part): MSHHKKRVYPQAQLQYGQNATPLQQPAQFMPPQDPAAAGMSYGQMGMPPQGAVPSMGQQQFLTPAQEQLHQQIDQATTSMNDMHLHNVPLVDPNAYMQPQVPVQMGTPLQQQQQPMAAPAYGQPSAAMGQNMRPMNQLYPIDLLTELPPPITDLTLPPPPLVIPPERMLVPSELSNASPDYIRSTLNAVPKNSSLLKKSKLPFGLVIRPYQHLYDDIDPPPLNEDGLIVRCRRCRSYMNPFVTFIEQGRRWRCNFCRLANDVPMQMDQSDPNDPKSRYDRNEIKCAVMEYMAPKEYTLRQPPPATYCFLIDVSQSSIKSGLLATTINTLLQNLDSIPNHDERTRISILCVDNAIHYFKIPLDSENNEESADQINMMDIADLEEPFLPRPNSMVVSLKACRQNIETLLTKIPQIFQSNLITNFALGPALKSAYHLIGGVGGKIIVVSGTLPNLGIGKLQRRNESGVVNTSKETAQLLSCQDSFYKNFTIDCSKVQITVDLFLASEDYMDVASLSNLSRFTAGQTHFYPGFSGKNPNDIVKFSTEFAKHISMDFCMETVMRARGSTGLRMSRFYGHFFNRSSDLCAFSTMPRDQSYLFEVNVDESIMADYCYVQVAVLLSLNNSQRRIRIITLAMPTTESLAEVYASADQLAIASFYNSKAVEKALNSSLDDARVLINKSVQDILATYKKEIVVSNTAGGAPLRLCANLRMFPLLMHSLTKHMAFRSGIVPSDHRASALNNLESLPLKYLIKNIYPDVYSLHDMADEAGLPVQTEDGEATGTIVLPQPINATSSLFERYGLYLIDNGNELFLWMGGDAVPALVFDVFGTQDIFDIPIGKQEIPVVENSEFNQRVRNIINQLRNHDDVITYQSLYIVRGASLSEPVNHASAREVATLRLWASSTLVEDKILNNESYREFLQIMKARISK

In the case of “Sec13–Nhis-Sec31 complex (from UniProt Q04491;P38968) ΔPPP (glycine/serine substitution of all six PPP motifs plus an additional PPAP motif; residues not printed)”, in test [1] (parent: est. 0.91), the other: Ratio Sec31:Sec23 is 0.91.
In the case of “Sec13–Sec31 complex (WT) (from UniProt Q04491;P38968) ΔPPP (glycine/serine substitution of all six PPP motifs plus an additional PPAP motif; residues not printed)”, in test [1] (parent: est. 1.1), the other: Ratio Sec31:Sec23 came out at 1.2.
Consider “Sec23–Sec24 complex (WT) (from UniProt P15303;P40482) Δcharge (charge reversal of a negatively charged surface adjacent to the gelsolin domain of Sec23; residues not printed)”, for which, in test [2], the other: Protein ratio Sec23:Sar1 worked out at 1.1. In addition, the other: Protein ratio Sec31:Sec23 in test [3] is 0.43.
